These results are taken from patent publication US8710008B2, “Compounds, compositions and use” (Universitetet I Oslo, priority 2008, dated 2014).

Assay [1] concerns crude membranes from rat cerebellum. Kind of assay: Radioligand binding assay of [3H]peptide on crude membranes from rat cerebellum. The procedure:
The radiolabelled compound denoted [3H]peptide was custom synthesised from the unsaturated precursor 29 (Example 27) by Perkin Elmer Health Sciences Inc., 549 Albany Street, Boston, Mass. 02118, U.S.A. The radioactive compound was received as an EtOH solution. The total activity of the sample was 1 mCi. and the radiological concentration was 2 mCi/mL. The specific activity was 42.9 Ci/mmol and the radiochemical purity (determined by HPLC) 99.8%. The specific activity was determined by mass spectrometry.
Female Wistar rats weighing 250-300 g (Mollegaard, Ejby, Denmark) were used. Experimental protocols conform to National Institutes of Health guidelines for the care and use of animals.
Brain cerebella (1:5 wt/vol) in ice cold 0.3 M sucrose, 50 mM Hepes, pH 7.4, 2 mM EDTA, protease inhibitors (Complete; Roche, Mannheim, Germany) were homogenised in clay-beads-containing tubes by Fastprep shaker and centrifuged at 1,000 g for 10 min at 4° C. The supernatant was spun down at 42,000 g for 60 min at 4° C. […] Protein concentration was determined by the DC Protein Assay Kit (Bio-Rad). […]
Binding data were analysed by non-linear regression using Microsoft Excel with the Solver add-in. The non-specific binding was assumed to be linear as a function of the concentration of free [^3H]peptide and analysed by linear regression. […]

The target in assay [2] is T1, AQP4 (Homo sapiens, UniProt P55087). Particulars: cited from earlier work.
T1 sequence (P55087 whole entry, species assumed): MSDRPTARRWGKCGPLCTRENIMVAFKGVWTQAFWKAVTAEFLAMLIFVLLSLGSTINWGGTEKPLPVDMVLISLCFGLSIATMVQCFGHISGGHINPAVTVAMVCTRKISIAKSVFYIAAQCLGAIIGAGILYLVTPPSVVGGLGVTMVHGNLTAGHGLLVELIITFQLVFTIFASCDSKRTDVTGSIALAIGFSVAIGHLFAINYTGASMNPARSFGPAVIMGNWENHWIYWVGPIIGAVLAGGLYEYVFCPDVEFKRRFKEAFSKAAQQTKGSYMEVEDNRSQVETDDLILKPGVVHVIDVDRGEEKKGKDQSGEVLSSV
The target in another assay is T2, AQP1 (Homo sapiens, UniProt P29972).
T2 sequence (P29972 1-269): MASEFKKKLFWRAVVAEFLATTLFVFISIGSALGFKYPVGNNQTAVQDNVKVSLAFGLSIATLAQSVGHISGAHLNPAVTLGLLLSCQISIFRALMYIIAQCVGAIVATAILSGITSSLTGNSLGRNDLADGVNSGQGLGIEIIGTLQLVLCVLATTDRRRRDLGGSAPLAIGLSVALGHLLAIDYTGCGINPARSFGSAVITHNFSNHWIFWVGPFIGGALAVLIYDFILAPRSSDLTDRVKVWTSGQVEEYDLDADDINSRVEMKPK
Particulars: cited from earlier work.

Assay [3] addresses T1, AQP4. Particulars: liposome-based assay; cited from earlier work.
The target in assay [4] is crude membranes from rat cerebellum (rat). In words: radioligand saturation binding, filter assay, crude membranes.
For assay [5] the target is unchanged. In words: radioligand saturation binding, non-linear regression, unweighted fit.
Assay [6] has the same target. Kind of assay: radioligand saturation binding, non-linear regression, fit weighted 1/Y.
The target is the same in assay [7]. Kind of assay: radioligand saturation binding, non-linear regression, fit weighted 1/Y^2.

Where two headings read alike, the source gives them in different places. Positions of bridges follow the written chain, without caps; N, C: chain ends. *: point of attachment. Boc = CC(C)(C)OC(=O)* Bounds are passed on as bounds.

For “[^3H]peptide: radiolabelled compound custom synthesised from the unsaturated precursor 29 (Example 27); specific activity 42.9 Ci/mmol (Boc-PPSVVSG-OMe; bridge 3-6; not fully specified (bridges); also: tritium label)”, the Specific binding in assay [1] (difference without and with 100 μM unlabelled peptide) is 0.5-1 pmol/mg membrane protein. Also, the Kd in assay [1] (specific binding, non-specific defined with 100 μM unlabelled peptide, read-out: Kd value (affinity)) fell in the range of 0.1 to 0.2 µM.

Turning to `CC[N+](CC)(CC)CC` [tetraethylammonium ions, tetraethylammonium], the “Effect on AQP4” value at AQP4 [2] (up to 10 mmolar concentration, B. Yang et al. 2006) is “no effect”. The “Effect on AQP1” value at AQP1 (R. Søgaard et al. 2008) is “no effect”.

Consider `CC(=O)Nc1nnc(S(N)(=O)=O)s1` [Acetazolamide], for which the “Effect on water permeation through AQP4” value at AQP4 [2] (Y. Tanimura et al. 2009) is recorded as “reversibly inhibits”. The IC50 on AQP4 [2] (Y. Tanimura et al. 2009, read-out: IC50 of inhibition of water permeation through AQP4) is over 1000 µM. Besides, the “Effect on water permeation through AQP1” value at AQP1 (Y. Tanimura et al. 2009) is “not through AQP1”.

On to `[Cl][Hg][Cl]` [mercury chloride], for which the “Effect on AQP4” value at AQP4 [3] is on record as “inhibit AQP4”.

B1: [3H]peptide (radiolabelled compound 35, custom synthesised from the unsaturated precursor 29 of Example 27) (peptide)
peptide: Boc-PPSVVSG-OMe
modifications: bridge 3-6; also: tritium label
In assay [4], B1 showed a Kd of 0.1 to 0.2 µM and a specific binding (Bmax) (pmol/mg membrane protein) of 0.5 to 1. In assay [5], this molecule showed a Bmax of 2140 cpm, a Bmax (fmol/mg protein) of 1120 and a Kd of 0.107 µM. For the same molecule, in assay [6], the Bmax was 1920 cpm, the Bmax (fmol/mg protein) turned out to be 1000 and the dissociation constant Kd was 0.0927 µM. In assay [7], the Bmax came out at 1920 cpm, the Bmax (fmol/mg protein) was 1000 and the Kd stood at 0.0927 µM.
